From the supplement of paper PMC9732359
± gives the uncertainty stated by the source.

Assay: protein stability index of a GFP-peptide fusion (yeast GPS) (PSI 1-4); higher = more stable; sorted into four equal gates, so the index is relative within each strain
Settings: pdr5∆
Summary of the method: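 Plasmids in a pooled yeast library fused tiled 17-residue yeast protein peptides downstream of GFP and also expressed Cherry. Mid-log cultures grown without leucine were sorted into four equal gates by GFP/Cherry fluorescence ratio. Each gate's plasmids were PCR-amplified and Illumina-sequenced, and reads were matched to strains by barcodes. The protein stability index is derived by multiplying each gate's read frequency by its gate number and summing the results.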
LVSLFEDTNLAAIHAKR [HHT1] showed a protein stability index of 2.67 ± 0.17.
LVSSGDRFIELISDQLL [YML103C/NUP188] gave a protein stability index of 2.5 ± 0.079.
With LVTPKSFLFDVLKTLEY [NUT1] the protein stability index was 2.98 ± 0.18.
With LVTQHKAKYNTPKYRLV [RPL5] the protein stability index was 1.94 ± 0.064.
In the case of LWDSKELEQLVEFNRKV [RPN3], the protein stability index is reported as 2.62 ± 0.093.
For LWNQWLKLNTSLPSKLT [SRP68], the protein stability index was 1.51 ± 0.052.
LWVFQAFTCFCIKKIME [SRB8] showed a protein stability index of 1.52 ± 0.04.
For LYDALEPSDLRSWTLTS [YGL100W/SEH1], the protein stability index was 2.79 ± 0.046.
For LYNDADVLTLENIQEGT [CDC53], the protein stability index was 3.03 ± 0.087.
With LYNKIWTEASSSGAGTV [ECM29] the protein stability index was 1.76 ± 0.058.
LYPIFLLDDKKLMDEDS [YJR042W/NUP85] showed a protein stability index of 1.84 ± 0.14.
For LYQSKGRYMEALALYVD [SRP68], the protein stability index was 1.9 ± 0.14.
Sequence LYTLAQETEGTNRHTLA [SIR3] has a protein stability index of 2.09 ± 0.072.
With LYVDSESTSSTEEVEAL [MTW1] the protein stability index was 3.76 ± 0.15.
Sequence LYVLPSFNIPRLTFKPW [YMR129W/POM152] has a protein stability index of 1.7 ± 0.096.
In the case of LYYRPHINKKSQLDLFL [GRR1], the protein stability index is reported as 2.17 ± 0.12.
With MAESHRLYVKGKHLSYQ [RPL33A] the protein stability index was 2.84 ± 0.068.
In the case of MAFQKDAKSSAYSSRFQ [RPL5], the protein stability index is reported as 2.89 ± 0.072.
Sequence MAFRKSNVYLSLVNSYI [COB] has a protein stability index of 2.08 ± 0.078.
With MALNKVLITDHIEKLEN [CDC53] the protein stability index was 2.14 ± 0.047.
MAPLSLNFKDDKKYKGL [REC8] showed a protein stability index of 2.61 ± 0.14.
Sequence MATLEELDAQTLPGDDE [RPT5] has a protein stability index of 3.28 ± 0.15.
MCEQALSALFTISSKPD [YCS4] showed a protein stability index of 1.72 ± 0.04.
MCQNPMQKPVPFVPVLD [FAS1] showed a protein stability index of 1.54 ± 0.034.
With MDFGVDPSMDPELAMAL [RPN10] the protein stability index was 3.15 ± 0.079.
With MDHEEARRKHVSGKILG [RPS22A] the protein stability index was 2.65 ± 0.24.
MDIAERIAVLHQKTKTL [YGL172W/NUP49] gave a protein stability index of 1.67 ± 0.058.
Work on MDIMEDFLRYINIKYLR [SNF2] yielded a protein stability index of 1.37 ± 0.044.
Sequence MDSIIPAGVKLDDLQVI [PGD1] has a protein stability index of 3.05 ± 0.091.
For MDVDQFDFLDDGTAQLS [YJR042W/NUP85], the protein stability index was 2.98 ± 0.075.
MDVDSVKTTLVSLTQLR [RPC82] showed a protein stability index of 1.81 ± 0.074.
With MEIVANAKESNYTDLIW [MED1] the protein stability index was 3.41 ± 0.16.
Sequence MEKLDAKLNHLKKLEKF [SWI3] has a protein stability index of 2.7 ± 0.1.
In the case of MFTYSQETQHGNITRGL [RPN2], the protein stability index is reported as 3.12 ± 0.12.
With MGAYKYLEELQRKKQSD [RPL15A] the protein stability index was 2.75 ± 0.28.
Work on MGKSAVIFVERATPATL [SRB2] yielded a protein stability index of 1.31 ± 0.076.
With MGRVRTKTVKRASKALI [RPS17A] the protein stability index was 1.87 ± 0.086.
In the case of MGSRRYDSRTTIFSPEG [PRE9], the protein stability index is reported as 3.01 ± 0.17.
Sequence MIISGSRDKTIKVWTIK [ASC1] has a protein stability index of 2.71 ± 0.092.
In the case of MILNYNPSQGVSNSGAQ [UBP6], the protein stability index is reported as 3.37 ± 0.086.
MKAVGEYMKRHPTTIES [SEC65] showed a protein stability index of 2.24 ± 0.23.
Sequence MKQYRDFLGVASTGSGK [PRP28] has a protein stability index of 2.72 ± 0.12.
In the case of MKQYSYLMDSKNVRTRI [RRI1], the protein stability index is reported as 2.6 ± 0.26.
In the case of MKTKTINAQGEEIVVVA [PRP8], the protein stability index is reported as 1.92 ± 0.12.
With MKVFVTKHLMPQDLTFN [RPB7] the protein stability index was 2.87 ± 0.054.
In the case of MLKQHLFKYQGHIGAYL [PUP1], the protein stability index is reported as 2.34 ± 0.063.
MMCDFGTGNNNKLNFIV [DIB1] gave a protein stability index of 1.22 ± 0.048.
In the case of MNIIQQQQQQNTNNNDT [GAL11], the protein stability index is reported as 2.63 ± 0.047.
Sequence MNRPGARVTRRKRCKGT [RPL11A] has a protein stability index of 3.25 ± 0.13.
Work on MPPKFDPNEVKYLYLRA [RPL12A] yielded a protein stability index of 2.09 ± 0.17.
MQENDKINQERLERRIN [CSI1] showed a protein stability index of 1.92 ± 0.062.
In the case of MQFAKSKTVKVLKTLIE [RPN6], the protein stability index is reported as 1.43 ± 0.077.
With MQHNPLAGKRGPKSGST [PGD1] the protein stability index was 2.74 ± 0.057.
With MQVYLVPIERVAQLKPF [RPC37] the protein stability index was 1.77 ± 0.065.
For MREITETIAEAKKKVLD [RPO21], the protein stability index was 3.42 ± 0.09.
For MSGRGKGGKGLGKGGAK [HHF1], the protein stability index was 3.56 ± 0.27.
MSIVFGDKFSEDFRIQF [UBP6] gave a protein stability index of 2.71 ± 0.1.
MSLQHEKVTIAPLVLLS [RPN8] gave a protein stability index of 1.28 ± 0.032.
MSSDASTYRLEDVLSSF [SSN2] gave a protein stability index of 2.38 ± 0.069.
Sequence MSVERGIRWELISRLCP [RPT1] has a protein stability index of 2.17 ± 0.048.
MTNLTYFLHLSVFNAEL [YCS4] showed a protein stability index of 1.48 ± 0.047.
Sequence MTVTKVSLPEGSFKRVK [BRR2] has a protein stability index of 2.72 ± 0.11.
In the case of MTYKNKLTVCFDDILKV [MED2], the protein stability index is reported as 2 ± 0.041.
For MVATVKRTIRIKTQQHI [TAF14], the protein stability index was 1.95 ± 0.053.
MVAYSPIIATYGNRAEQ [SRP68] showed a protein stability index of 2.54 ± 0.059.
MVEWLESRSFSPIPFPP [PRP8] gave a protein stability index of 2.83 ± 0.17.
Sequence MVGQQYSSAPLRTVKEV [RPO21] has a protein stability index of 1.92 ± 0.27.
For MVHREFLKLANGGKFSK [RGR1], the protein stability index was 2.74 ± 0.074.
MVLVQDLLHPTAASEAR [RPS27A] showed a protein stability index of 3.37 ± 0.089.
With MVMFMHMAKGLYYGSYR [COB] the protein stability index was 1.16 ± 0.13.
With MYGLTMEWPKDMLKYKE [ITC1] the protein stability index was 3.1 ± 0.28.
NAANVPVENIWADIFAK [RPP1A] gave a protein stability index of 2.51 ± 0.11.
Sequence NAARKAEASGEAADEAD [RPS9A] has a protein stability index of 3.03 ± 0.29.
In the case of NAIFQMESEEVPLTKRY [PCI8], the protein stability index is reported as 2.82 ± 0.045.
In the case of NAISLQLKYDTSVQEKE [YIL149C/MLP2], the protein stability index is reported as 2.33 ± 0.12.
Sequence NAISNTQDDFTTSVDVM [SRP54] has a protein stability index of 2.76 ± 0.061.
With NAKKRVFKTHSYRGVDL [RPS15] the protein stability index was 2.15 ± 0.033.
With NALHTERLHELKKLQSD [SMC1] the protein stability index was 3.38 ± 0.12.
With NALYDTLLESNLCKIIE [RPN6] the protein stability index was 2.48 ± 0.079.
With NANEISANTNNTCTIST [SWP82] the protein stability index was 2.61 ± 0.045.
Work on NANQQFLPFNNSASNNG [SWI1] yielded a protein stability index of 2.97 ± 0.052.
For NANTGFSFGGTQTGQNT [YGL172W/NUP49], the protein stability index was 3.21 ± 0.11.
NAQDIDHFLSMCQNPMQ [FAS1] showed a protein stability index of 2.84 ± 0.17.
Sequence NARMPGMPNMPGMPNMP [SRP54] has a protein stability index of 3.25 ± 0.085.
Work on NASANSTSFSFNAPATG [YOR098C/NUP1] yielded a protein stability index of 2.94 ± 0.051.
NASGNKRSGVIETVDDK [ITC1] showed a protein stability index of 2.58 ± 0.097.
With NASQMGNTGSGGYDNAW [RPB3] the protein stability index was 3.31 ± 0.17.
Work on NATANATANATANATAE [SNF11] yielded a protein stability index of 3.33 ± 0.042.
In the case of NCIRILADKLENYEGKQ [YIL149C/MLP2], the protein stability index is reported as 3.57 ± 0.2.
NDANITSNKEGFNSIWK [SSN2] gave a protein stability index of 3.26 ± 0.079.
In the case of NDDELNKLLGNVTIAQG [HTA1], the protein stability index is reported as 3.5 ± 0.12.
NDEKRVKEEYDIWQSRD [YIL149C/MLP2] gave a protein stability index of 3.06 ± 0.078.
For NDELVELLANKCPLLVE [GRR1], the protein stability index was 2.13 ± 0.04.
NDIDDLDMELAELDPSL [SEC65] showed a protein stability index of 3.23 ± 0.089.
NDIFERIATEASKLAAY [HTB1] showed a protein stability index of 1.34 ± 0.11.
For NDIHLRFMRFLADRDEF [ECM29], the protein stability index was 2.24 ± 0.059.
NDKLIVDNDNWVYKTKG [RPN1] gave a protein stability index of 2.77 ± 0.18.
For NDLRVSLNEKNALHTER [SMC1], the protein stability index was 3.24 ± 0.096.
NDNEGKHISASIDNDFS [YAR002W/NUP60] showed a protein stability index of 3.04 ± 0.071.
In the case of NDPAREKFSSFIESIVV [SNF12], the protein stability index is reported as 2.8 ± 0.058.
NDPNAAVNMTQNIMTLP [MED6] showed a protein stability index of 2.95 ± 0.089.
Work on NDVTNKNINIGKHSQEQ [SIR4] yielded a protein stability index of 2.46 ± 0.047.
